# Laboratory results reported in CN110305214A.
# B1: W3452-1.164.16-z11-IgG1K (antibody, V domains shown)
# VH: QVQLQESGPGLVKPSETLSLTCTVSGFSLTNYHVYWIRQPPGKGLEWIGVMWNHGDTSYNSPLKSRVTISVDTSKSQFSLKLSSVTAADTAVYYCARGGYVPDYWGQGTMVTVSS
# VL: DIVMTQSPLSLPVTPGEPASISCRSSQSLVHSNAKTYLHWYLQKPGQSPQLLIYRVSNRFSGVPDRFSGSGSGTDFTLKISRVEAEDVGVYYCLQTTHFPYTFGQGTKLEIK
# B2: W3452-2.683.2-z27-IgG1L (antibody, V domains shown)
# VH: EVQLVESGGGLVQPGRSLRLSCAASGFTFSTYGMAWVRQAPGKGLEWVSSISTSGGSTYYRDSVQGRFTISRDNAKSSLYLQMNSLRAEDTATYYCTTKGGRTYRLAYWGQGTLVTVSS
# VL: SYELMQPPSVSVSPGQTARITCSGIELSNKYAHWYQQKPGQAPVEVMYKDSERPSGIPERFSGSRSGTTVTLTISGVQAEDEADYYCLSTNSDDDLPVFGGGTKLTVL
# B3: W3452-2.683.2-z27-IgG4PE,L (antibody, V domains shown)
# VH: B2 VH
# VL: B2 VL
# Target: 人CD47 (human CD47) (human) (UniProt Q08722)
# Assay: FACS competition on CHOK1 cells stably transfected with human CD47; competitor 1 μg/ml human SIRPα-His
# UniProt Q08722, sequence (Q08722 19-323): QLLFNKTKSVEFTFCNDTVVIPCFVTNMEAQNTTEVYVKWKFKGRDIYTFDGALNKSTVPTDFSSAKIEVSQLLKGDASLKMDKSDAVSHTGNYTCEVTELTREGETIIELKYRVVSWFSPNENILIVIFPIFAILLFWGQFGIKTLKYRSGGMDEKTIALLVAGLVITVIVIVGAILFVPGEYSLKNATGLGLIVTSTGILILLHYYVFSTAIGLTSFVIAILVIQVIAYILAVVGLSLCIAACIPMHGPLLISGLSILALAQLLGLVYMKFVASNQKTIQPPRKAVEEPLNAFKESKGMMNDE
row,阻断率 [%],Binder
1,> 90,B1
2,> 90,B2
3,> 90,B3
